For the assay, the target named is GST–INAD fusion protein (full-length INAD in pGEX5.1) (Drosophila, UniProt Q24008 1-674). Kind of assay: pull-down.

B1: PKC^D (last three residues changed to aspartic acid), in vitro translated, 35S-labelled (enzyme, Drosophila, UniProt P13677 1-700, looked up)
chain: MAAAAVATPGATVLPPSVPSAAPGAKAPAAGAGKGPGNLLEITGEANIVNYMKNRLRKGAMKRKGLEMVNGHRFGVRFFKNPTYCGHCKDFIWGFGKQGFQCEECRFNIHQKCCKFVVFKCPGKDTDFDADCAKVKHGWISTTYTTPTFCDECGLLLHGVAHQGVKCENCNLNVHHACQETVPPMCGADISEVRGKLLLYVELKGNNLKVDIKEAANLIPMDTNGFSDPYIAVQMHPDRSGRTKKKTKTIQKNLNPVFNETFTFELQPQDRDKRLLIEVWDWDRTSRNDFMGSFSFSLEELQKEPVDGWYKFLSQVEGEHYNIPCVDAFNDIARLRDEVRHDRRPNEKRRMDNKDMPHNMSKRDMIRAADFNFVKVIGKGSFGKVLLAERRGTDELYAVKVLRKDVIIQTDDMELPMNEKKILALSGRPPFLVSMHSCFQTMDRLFFVMEYCKGGDLMYHMQQYGRFKESVAIFYAVEVAIALFFLHERDIIYRDLKLDNILLDGEGHVKLVDFGLSKEGVTERQTTRTFCGTPNYMAPEIVSYDPYSIAADWWSFGVLLFEFMAGQAPFEGDDETTVFRNIKDKKAVFPKHFSVEAMDIITSFLTKKPNNRLGAGRYARQEITTHPFFRNVDWDKAEACEMEPPIKPMIKHRKDISNFDDAFTKEKTDLTPTDKLFMMNLDQNDFIGFSFMNPEFIDDD
modifications: [35S]methionine label
For the molecule B1, the “fold reduction of binding relative to wild-type PKC” value was ~8 fold.
